The results in this text go back to publication PMC9890229.

Data set [1] deals with T1, Hfq;Crc (Pseudomonas aeruginosa;Pseudomonas aeruginosa) (UniProt Q9HUM0+Q51380). Briefly: EMSA. The settings on record: EMSA: 20 mM Tris-HCl pH 8.0, 40 mM NaCl, 10 mM KCl, 1 mM MgCl2; 200 nM RNA; 15 min at 37 C; 4% PAA gel in 1x TBE at 4 C, SYBR gold.
The target in data set [2] is T1, Hfq;Crc (Pseudomonas aeruginosa;Pseudomonas aeruginosa). Kind of data set: cryo-EM. The conditions noted are these: EMSA: 20 mM Tris-HCl pH 8.0, 40 mM NaCl, 10 mM KCl, 1 mM MgCl2; 200 nM RNA; 15 min at 37 C; 4% PAA gel in 1x TBE at 4 C, SYBR gold.

Regarding “GGAACGCAAACGUUUGCGUCUGGAUAAUCUCCUGGAAAAGCCUCAAUACAACGAUAAGAAAAGCUGGAGGAUACACCAUGAAGCGGGUCGCUUCCCGGCGCCUGUUGGCU [rbsB110]”, the binding result in data set [1] and in data set [2] was “binds” each time.

Consider “GGCUGAGGAGGCUUUACGACGGGCCCCGGGGCGCAUGCCGACGACGCGGCGGCCCGACAAUAAAAACAAAUCAUGGAGUAAGAGAAUGAUCAGAAUGGCGCUCAAGCCACUGGUAGCG [estA118]”, for which the binding entry in data set [1] and in data set [2] was “binds” in each case.

Consider “GGGCCUUUUUUCGUCCCGAAAAAAUAACAACAAGAGGUGAUAUCCAUGCGUCACGGCGAUAUUUCCAGCAGCAACGACACCGUCGGAGUGGCGGUGGUCAACUAC [amiE105]”, for which the binding result in data set [1] and in data set [2] was “binds” in each case.
